In patent publication US20250368729A1 (ATTRALUS, published 2025):
Where a chain is given by its changes, count along the chain named. Names and notes keep the numbering of the source.

How the values were obtained:
[1] = target: T1, synthetic amyloid-like fibrils of recombinant amyloidogenic λ6 variable domain protein (rVλ6Wil); assay: EuLISA, fibrils coated on plate (FIG. 13B)
T1 construct: domain: λ6 variable domain; Fibrillar aggregate of many copies; also called rVλ6Wil fibrils; rVλ6Wil synthetic fibrils

[2] = target: T2, Vκ4Len(1-22) monomer peptide (Homo sapiens (Human), UniProt P06312 21-42); assay: pulldown, labelled antibody, peptide on beads
T2 construct: Free peptide as analyte in SPR; also called Vκ4(LEN(1-22) beads)
T2 peptide: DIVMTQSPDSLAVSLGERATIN

[3] = target: T1, synthetic amyloid-like fibrils of …; assay: EuLISA, substrate coated on plate
Experimental: (§1) To perform europium-linked immunosorbent assays (EuLISAs), suspensions of rVλ6Wil fibrils (sonicated) were prepared at 0.83 μM in phosphate buffered saline (PBS). The fibrils were coated onto the wells of a 96-well microplate by adding 50 μL to each well. The plates dried at 37° C. overnight. The wells of the microplate were blocked by addition of Superblock (Thermofisher) (SB) using 200 µL/well, and left at 37° C. for 1 hour. The primary (test) antibody (i.e., the humanized antibody) were added, prepared in SB+0.05% tween 20 (SBT) in a 1:2 dilution series starting at 1 μM using 100 µL/well. Plates were then incubated for 1 hour at 37° C. After a wash step (plates were washed three times using PBS+0.05% tween 20), secondary antibody was added as a 1:3000 dilution of biotinylated goat anti-human IgG (Sigma) in SBT at 100 µL/well. The plates were incubated for 1 hour at 37° C. After another wash step, 100 µL/well of a 1:1000 dilution of europium/streptavidin (Perkin Elmer) in SBT was added. The plates were incubated for 1 hour at 37° C. After a final wash step, 100 μL/well of europium enhancement solution (Perkin Elmer) was added. Time-resolved fluorescence emission was detected using a microplate reader (Wallac).
(§2) Table 8, below, provides the results of the ELISAs measuring the ability of mIgp5, hIgG1, c11-1F4, m11-1F4, VH6/VL3-p5, VH9/VL4-p5, and VH9/VL4-p5R to bind rVλ6Wil fibrils, Per125 wtATTR extract, KEN hATTR extract, SHI ALλ liver extract, and TAL ALκliver extract. For each combination of antibody and substrate, the Log-transformed EC₅₀, EC₅₀, and maximal level of binding in the assay is shown. Conditions labeled “na” were not tested.

hIAPP fibril = target: T3, hIAPP fibril (UniProt P10997 34-70); assay: pulldown, labelled antibody
T3 construct: Fibrillar aggregate
T3 chain (looked up): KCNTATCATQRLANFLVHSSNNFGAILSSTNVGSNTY

[4] = target: T4, Aβ(1-40) amyloid-like fibrils (UniProt P05067 672-711); assay: pulldown, labelled antibody
T4 construct: domain: Aβ(1-40); Fibrillar aggregate; The numbers 1-40 count on Aβ, not on the precursor; also called Aβ(1-40) fibrils

[5] = target: T1, synthetic amyloid-like fibrils of …; assay: pulldown, labelled antibody
[6] = target: T5, Per125 wtATTR amyloid extract (human, UniProt P02766 21-147); assay: EuLISA, extract coated on plate
[7] = target: T1, synthetic amyloid-like fibrils of …; assay: pulldown, 125I-labelled antibody
[8] = target: T6, TAL ALκ liver amyloid extract; assay: EuLISA, substrate coated on plate
T6 construct: Tissue amyloid extract; also called ALκTAL extract
Experimental: as §1, §2

[9] = target: T7, SHI ALλ liver amyloid extract; assay: EuLISA, substrate coated on plate
T7 construct: Tissue amyloid extract; also called SHI AL liver extract; ALλ SHI extract
Experimental: as §1, §2

[10] = target: T8, Per125 wtATTR amyloid extract (human, UniProt P02766 21-147); assay: EuLISA, substrate coated on plate
Experimental: as §1, §2

HIG ALκ1 amyloid extract = target: T9, HIG ALκ1 amyloid extract; assay: pulldown, labelled antibody
T9 construct: Tissue amyloid extract; also called ALκ HIG extract

[11] = target: Per253 wild type (wt) ATTR amyloid extract (human, UniProt P02766 21-147); assay: pulldown, labelled antibody
[12] = target: T6, TAL ALκ liver amyloid extract; assay: pulldown, labelled antibody
TYL ALλ amyloid extract = target: T10, TYL ALλ amyloid extract; assay: pulldown, labelled antibody
T10 construct: Tissue amyloid extract; also called ALλ TYL extract

[13] = target: T7, SHI ALλ liver amyloid extract; assay: pulldown, labelled antibody
[14] = target: T8, Per125 wtATTR amyloid extract; assay: pulldown, labelled antibody
[15] = target: T5, Per125 wtATTR amyloid extract; assay: EuLISA, substrate coated on plate; remark: listed apart in the source
Experimental: as §1, §2

[16] = target: T5, Per125 wtATTR amyloid extract; assay: pulldown, labelled antibody; remark: listed apart in the source
[17] = target: T2, Vκ4Len(1-22) monomer peptide; assay: SPR Biacore 8K, antibody immobilised, peptide as analyte
Experimental: The affinity of humanized anti-amyloid antibodies binding to Vκ4Len(1-22) (“Len(1-22) monomer”) monomer peptide—the natural ligand for the m11-1F4 antibody—was measured using a Biacore 8K surface plasmon resonance (SPR) system. Parental antibody m11-1F4 binds to an epitope present at the N-terminal of denatured kappa 4 light chain proteins. The Len (1-22) monomer is a peptide comprising this epitope, as described in International Application No. PCT/US2017/015905. Binding affinities of anti-amyloid antibodies incorporating the humanized heavy chain region VH9 and the humanized light chain VL4 were tested, including versions of VH9 and VL4 with additional mutations (Table 5).
All SPR data were processed using the Biacore 8K Evaluation software version 1.1. Flow cell 1 and blank injections of buffer in each cycle were used as double reference for Response Units subtraction.
Table 7 provides the results of SPR assays measuring the binding of the humanized anti-amyloid antibodies to a Len(1-22) Monomer peptide. Specifically, the humanized VH9 and VL4 sequences were tested with or without additional amino acid substitutions, as indicated in the “Ligand” column of Table 7.

T4 sequence (P05067 672-711 limits assumed): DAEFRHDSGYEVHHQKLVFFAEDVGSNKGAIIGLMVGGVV

B1: VH6/VL3-p5 (humanized VH6/VL3 with peptide p5 fused to the N-terminal of the light chain) (antibody, V domains shown)
VH: QVQLQESGPGLVKPSETLSLTCTVSGFSLSSYGVSWVRQPPGKGLEWLGVIWGDGSTNYHPNLMSRLSISKDTSKNQFSLKLSSVTAADTATYYCVTLDYWGQGTSVTVSS
VL: DVVMTQSPLSLPVTLGQPASISCRSSQSLVHRNGNTYLHWYLQRPGQSPRLLIYKVSNRFSGVPDRFSGSGSGTDFTLKISRVEAEDVGLYFCFQTTYVPNTFGGGTKLEIK
With B1 as the binder, how does the EC50 [1] read?
Its EC50 is 3 nM.

And the “fold enhancement of binding over VH6/VL3 (based on EC50)” value [1]?
The value was roughly 30 fold.

What about the percent bound [2] of the same binder?
The percent bound was 54.9%.

What about the EC50 [3] of the same binder?
Its EC50 is 3.49 nM.

And the LogEC50 [3]?
Its LogEC50 is 8.46 -log(M).

And the “Max (maximal level of binding)” value [3]?
The value was 65.3.

What about the percent bound (hIAPP fibril) of the same binder?
Its percent bound is 4.82%.

And the percent bound [4]?
Its percent bound is 20.6%.

What about the percent bound [5] of the same binder?
Its percent bound is 22.5%.

B2: VH6/VL3-p5R (humanized VH6/VL3 with peptide p5R fused to the N-terminal of the light chain) (antibody, V domains shown)
VH: B1 VH
VL: B1 VL
Which EC50 [1] does the source give for B2 here?
The EC50 was 3 nM.

And the “fold enhancement of binding over VH6/VL3 (based on EC50)” value [1]?
The value was roughly 30 fold.

What about the EC50 [6] of the same binder?
Its EC50 is 85 nM.

B3: murine Ig-peptide fusion Igp5 (murine 11-1F4 with peptide p5 fused to the N-terminus of the light chain) (antibody)
heavy: QVQLKESGPGLVAPSQSLSITCTVSGFSLSSYGVSWVRQPPGKGLEWLGVIWGDGSTNYHPNLMSRLSISKDISKSQVLFKLNSLQTDDTATYYCVTLDYWGQGTSVTVSS
light: AQAGQAGQAQGGGYSKAQKAQAKQAKQAQKAQKAQAKQAKQVTPTVDVVMTQTPLSLPVSLGDQASISCRSSQSLVHRNGNTYLHWYLQKPGQSPKLLIYKVSNRFSGVPDRFSGSGSGTDFTLKISRVEAEDLGLYFCFQTTYVPNTFGGGTKLEIK
notes: Antibody-peptide fusion; unlabelled in the EuLISA; also called mIgp5; mIgG-p5; not shown: murine 11-1F4 (IgG1) CH1 followed by murine IgG2a CH2-CH3 (pFUSE-mIgG2A-Fc); murine 11-1F4 kappa constant region (CL)
For B3, which “fold higher binding than murine 11-1F4” value [7] is on record?
Its value is 21 fold.

And the EC50 [8]?
The EC50 was 3.37 nM.

And the LogEC50 [8]?
Its LogEC50 is 8.47 -log(M).

And the “Max (maximal level of binding)” value [8]?
Its value is 24.6.

What about the EC50 [9] of the same binder?
The EC50 was 2.94 nM.

And the LogEC50 [9]?
The LogEC50 was 8.53 -log(M).

And the “Max (maximal level of binding)” value [9]?
Its value is 24.

And the EC50 [3]?
The EC50 was 2.88 nM.

What about the LogEC50 [3] of the same binder?
The LogEC50 was 8.54 -log(M).

And the “Max (maximal level of binding)” value [3]?
Its value is 58.5.

What about the EC50 [10] of the same binder?
Its EC50 is 6.24 nM.

And the LogEC50 [10]?
The LogEC50 was 8.21 -log(M).

And the “Max (maximal level of binding)” value [10]?
The value was 31.7.

What about the percent bound (HIG ALκ1 amyloid extract) of the same binder?
Its percent bound is 10%.

And the percent bound [11]?
Its percent bound is 17%.

What about the percent bound [12] of the same binder?
Its percent bound is 37%.

What about the percent bound (TYL ALλ amyloid extract) of the same binder?
The percent bound was 21%.

What about the percent bound [13] of the same binder?
The percent bound was 34%.

What about the percent bound [5] of the same binder?
The percent bound was 71%.

And the percent bound [14]?
The percent bound was 31%.

B4: chimeric (c) 11-1F4 (antibody, V domains shown)
VH: B3 heavy
VL: B1 VL with S7T, T14S, Q17D, P18Q, R44K, R50K, V88L
notes: also called ch11-1F4; ci1-1F4
B4 was tested. Which “Max (maximal level of binding)” value [8] did it give?
Its value is roughly 17800.

What about the “Max (maximal level of binding)” value [9] of the same binder?
The value was 51.3.

And the “Max (maximal level of binding)” value [3]?
The value was 63.9.

What about the “Max (maximal level of binding)” value [10] of the same binder?
Its value is 71.1.

B5: murine antibody m11-1F4 (antibody, V domains shown)
VH: B3 heavy
VL: B1 VL with S7T, T14S, Q17D, P18Q, R44K, R50K, V88L
notes: Murine IgG1 kappa; also called murine 11-1F4; m1-1F4
What does the source list for B5?
Max (maximal level of binding) [8]: ~35100; Max (maximal level of binding) [9]: ~1510; Max (maximal level of binding) [3]: 184; Max (maximal level of binding) [10]: 209

B6: VH9/VL4-p5 (humanized VH9/VL4 with peptide p5 fused to the N-terminal of the light chain) (antibody, V domains shown)
VH: B1 VH with V37I, L67V, S68T, K71V, N76S, F78V, S79L, L80F, T92V, V96A
VL: B1 VL with Y41F, L42Q, L90V
B6 was tested. Which percent bound [2] did it give?
The percent bound was 54.4%.

And the EC50 [15]?
The EC50 was 24.5 nM.

And the LogEC50 [15]?
The LogEC50 was 7.61 -log(M).

And the “Max (maximal level of binding)” value [15]?
Its value is 58.1.

What about the EC50 [3] of the same binder?
The EC50 was 4.05 nM.

What about the LogEC50 [3] of the same binder?
Its LogEC50 is 8.39 -log(M).

And the “Max (maximal level of binding)” value [3]?
The value was 71.

What about the percent bound [16] of the same binder?
The percent bound was 1.33%.

And the percent bound [5]?
The percent bound was 24.7%.

B7: VH9/VL4-p5R (humanized VH9/VL4 with peptide p5R fused to the N-terminal of the light chain) (antibody, V domains shown)
VH: B1 VH with V37I, L67V, S68T, K71V, N76S, F78V, S79L, L80F, T92V, V96A
VL: B1 VL with Y41F, L42Q, L90V
For B7, which percent bound [2] is on record?
Its percent bound is 50.2%.

And the EC50 [15]?
The EC50 was 14 nM.

What about the LogEC50 [15] of the same binder?
Its LogEC50 is 7.86 -log(M).

What about the “Max (maximal level of binding)” value [15] of the same binder?
Its value is 55.7.

What about the EC50 [3] of the same binder?
Its EC50 is 3.91 nM.

What about the LogEC50 [3] of the same binder?
Its LogEC50 is 8.41 -log(M).

And the “Max (maximal level of binding)” value [3]?
Its value is 82.7.

What about the percent bound [16] of the same binder?
The percent bound was 1.12%.

What about the percent bound [5] of the same binder?
The percent bound was 22.6%.

B8: VH9 + VL4-G34V (antibody, V domains shown)
VH: B1 VH with V37I, L67V, S68T, K71V, N76S, F78V, S79L, L80F, T92V, V96A
VL: B1 VL with G34V, Y41F, L42Q, L90V
Which results are given for B8?
Kd [17]: 35 nM; koff [17]: 0.00146 s⁻¹; kon [17]: 41800 M⁻¹ s⁻¹
